B1: SNAP91 (parent)
chain: FATASAAVPVSTSKPSSDLLDLQP

Variants of: B1
Experiment: protein stability index of a GFP-peptide fusion (GPS, HEK-293T) (PSI 1-6); higher = more stable
Details: c terminus: a fixed tail appended
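Note: lentivirally expressed fusions sorted by FACS into six bins by GFP to DsRed ratio, PSI derived from sequencing read proportions per bin multiplied by bin number.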

Variant | protein stability index
FATASAAVPVSTLKPSSDLLDLQP [S13L] | 3.09
FATASAAVPVSTNKPSSDLLDLQP [S13N] | 3.66
FATASAAVPVSTHKPSSDLLDLQP [S13H] | 3.66
FATASAAVPVSTEKPSSDLLDLQP [S13E] | 3.67
FATASAAVPVSTPKPSSDLLDLQP [S13P] | 3.83
FATASAAVPVSTKKPSSDLLDLQP [S13K] | 3.72
FATASAAVPVSTQKPSSDLLDLQP [S13Q] | 3.8
FATASAAVPVSTMKPSSDLLDLQP [S13M] | 3.67
FATASAAVPVSTGKPSSDLLDLQP [S13G] | 3.95
FATASAAVPVSTCKPSSDLLDLQP [S13C] | 2.57
FATASAAVPVSTAKPSSDLLDLQP [S13A] | 3.82
FATASAAVPVSTFKPSSDLLDLQP [S13F] | 3.22
FATASAAVPVSTIKPSSDLLDLQP [S13I] | 3.42
FATASAAVPVSTDKPSSDLLDLQP [S13D] | 3.62
FATASAAVPVTTSKPSSDLLDLQP [S11T] | 3.71
FATASAAVPVETSKPSSDLLDLQP [S11E] | 4.2
FATASAAVPVHTSKPSSDLLDLQP [S11H] | 3.01
FATASAAVPVYTSKPSSDLLDLQP [S11Y] | 2.17
FATASAAVPVDTSKPSSDLLDLQP [S11D] | 4.42
FATASAAVPVLTSKPSSDLLDLQP [S11L] | 3.03
FATASAAVPVNTSKPSSDLLDLQP [S11N] | 3.76
FATASAAVPVKTSKPSSDLLDLQP [S11K] | 3.84
FATASAAVPVGTSKPSSDLLDLQP [S11G] | 3.73
FATASAAVPVVTSKPSSDLLDLQP [S11V] | 3.62

Variant | protein stability index
FATASAAVPVPTSKPSSDLLDLQP [S11P] | 2.88
FATASAAVPVFTSKPSSDLLDLQP [S11F] | 1.7
FATASAAVPVMTSKPSSDLLDLQP [S11M] | 3.5
FATASAAVPVQTSKPSSDLLDLQP [S11Q] | 3.24
FATASAAVPVRTSKPSSDLLDLQP [S11R] | 3.77
FATASAAVPVITSKPSSDLLDLQP [S11I] | 3.15
FATASAAVPVATSKPSSDLLDLQP [S11A] | 3.44
FATASAAVPVCTSKPSSDLLDLQP [S11C] | 3.15
FATASAHVPVSTSKPSSDLLDLQP [A7H] | 3.24
FATASASVPVSTSKPSSDLLDLQP [A7S] | 3.55
FATASAMVPVSTSKPSSDLLDLQP [A7M] | 4.01
FATASADVPVSTSKPSSDLLDLQP [A7D] | 4.5
FATASAPVPVSTSKPSSDLLDLQP [A7P] | 3.66
FATASANVPVSTSKPSSDLLDLQP [A7N] | 3.9
FATASAEVPVSTSKPSSDLLDLQP [A7E] | 4.4
FATASAKVPVSTSKPSSDLLDLQP [A7K] | 3.54
FATASAFVPVSTSKPSSDLLDLQP [A7F] | 3.89
FATASAVVPVSTSKPSSDLLDLQP [A7V] | 3.05
FATASAIVPVSTSKPSSDLLDLQP [A7I] | 3.14
FATASAQVPVSTSKPSSDLLDLQP [A7Q] | 3.79
FATASAGVPVSTSKPSSDLLDLQP [A7G] | 3.72
FATASATVPVSTSKPSSDLLDLQP [A7T] | 3.24
FATASALVPVSTSKPSSDLLDLQP [A7L] | 2.93
FATASARVPVSTSKPSSDLLDLQP [A7R] | 3.63

Variant | protein stability index
FATASACVPVSTSKPSSDLLDLQP [A7C] | 3.07
FATASAAVPSSTSKPSSDLLDLQP [V10S] | 3.97
FATASAAVPTSTSKPSSDLLDLQP [V10T] | 4.17
FATASAAVPQSTSKPSSDLLDLQP [V10Q] | 4.61
FATASAAVPESTSKPSSDLLDLQP [V10E] | 4.23
FATASAAVPISTSKPSSDLLDLQP [V10I] | 3.39
FATASAAVPNSTSKPSSDLLDLQP [V10N] | 3.94
FATASAAVPASTSKPSSDLLDLQP [V10A] | 3.87
FATASAAVPYSTSKPSSDLLDLQP [V10Y] | 4.29
FATASAAVPGSTSKPSSDLLDLQP [V10G] | 3.37
FATASAAVPFSTSKPSSDLLDLQP [V10F] | 2.69
FATASAAVPRSTSKPSSDLLDLQP [V10R] | 2.85
FATASAAVPKSTSKPSSDLLDLQP [V10K] | 4.04
FATASAAVPCSTSKPSSDLLDLQP [V10C] | 3.18
FATASAAVPDSTSKPSSDLLDLQP [V10D] | 4.18
FATASAAVPLSTSKPSSDLLDLQP [V10L] | 3.63
FATASAAVPHSTSKPSSDLLDLQP [V10H] | 4.01
FATASAAVPMSTSKPSSDLLDLQP [V10M] | 3.55
FATASAAVPPSTSKPSSDLLDLQP [V10P] | 4.36
FATASAAVPVSCSKPSSDLLDLQP [T12C] | 2.58
FATASAAVPVSDSKPSSDLLDLQP [T12D] | 4.04
FATASAAVPVSNSKPSSDLLDLQP [T12N] | 3.7
FATASAAVPVSGSKPSSDLLDLQP [T12G] | 3.91
FATASAAVPVSQSKPSSDLLDLQP [T12Q] | 3.97

Variant | protein stability index
FATASAAVPVSSSKPSSDLLDLQP [T12S] | 4.49
FATASAAVPVSPSKPSSDLLDLQP [T12P] | 2.1
FATASAAVPVSASKPSSDLLDLQP [T12A] | 4.36
FATASAAVPVSFSKPSSDLLDLQP [T12F] | 3.07
FATASAAVPVSYSKPSSDLLDLQP [T12Y] | 3.28
FATASAAVPVSVSKPSSDLLDLQP [T12V] | 3.73
FATASAAVPVSRSKPSSDLLDLQP [T12R] | 3.13
FATASAAVPVSISKPSSDLLDLQP [T12I] | 3.51
FATASAAVPVSKSKPSSDLLDLQP [T12K] | 3.61
FATASAAVPVSWSKPSSDLLDLQP [T12W] | 2.61
FATASAAVPVSLSKPSSDLLDLQP [T12L] | 3.74
FATASAAVPVSHSKPSSDLLDLQP [T12H] | 4.3
FATASAAVPVSESKPSSDLLDLQP [T12E] | 4.44
FATASAAVPVSMSKPSSDLLDLQP [T12M] | 2.78
FATASAAVKVSTSKPSSDLLDLQP [P9K] | 3.23
FATASAAVTVSTSKPSSDLLDLQP [P9T] | 3.73
FATASAAVIVSTSKPSSDLLDLQP [P9I] | 1.87
FATASAAVHVSTSKPSSDLLDLQP [P9H] | 3.46
FATASAAVRVSTSKPSSDLLDLQP [P9R] | 3.05
FATASAAVEVSTSKPSSDLLDLQP [P9E] | 3.99
FATASAAVDVSTSKPSSDLLDLQP [P9D] | 3.78
FATASAAVFVSTSKPSSDLLDLQP [P9F] | 1.93

Source: the supplement of paper PMC10567573
